Target: Homo sapiens full-length TRPV4 (hTRPV4) with C-terminal FLAG-tag and 10xHis-tag (human) (UniProt Q9HBA0)
Assay: cryo-EM structure

Chain of UniProt Q9HBA0 (Q9HBA0 whole entry): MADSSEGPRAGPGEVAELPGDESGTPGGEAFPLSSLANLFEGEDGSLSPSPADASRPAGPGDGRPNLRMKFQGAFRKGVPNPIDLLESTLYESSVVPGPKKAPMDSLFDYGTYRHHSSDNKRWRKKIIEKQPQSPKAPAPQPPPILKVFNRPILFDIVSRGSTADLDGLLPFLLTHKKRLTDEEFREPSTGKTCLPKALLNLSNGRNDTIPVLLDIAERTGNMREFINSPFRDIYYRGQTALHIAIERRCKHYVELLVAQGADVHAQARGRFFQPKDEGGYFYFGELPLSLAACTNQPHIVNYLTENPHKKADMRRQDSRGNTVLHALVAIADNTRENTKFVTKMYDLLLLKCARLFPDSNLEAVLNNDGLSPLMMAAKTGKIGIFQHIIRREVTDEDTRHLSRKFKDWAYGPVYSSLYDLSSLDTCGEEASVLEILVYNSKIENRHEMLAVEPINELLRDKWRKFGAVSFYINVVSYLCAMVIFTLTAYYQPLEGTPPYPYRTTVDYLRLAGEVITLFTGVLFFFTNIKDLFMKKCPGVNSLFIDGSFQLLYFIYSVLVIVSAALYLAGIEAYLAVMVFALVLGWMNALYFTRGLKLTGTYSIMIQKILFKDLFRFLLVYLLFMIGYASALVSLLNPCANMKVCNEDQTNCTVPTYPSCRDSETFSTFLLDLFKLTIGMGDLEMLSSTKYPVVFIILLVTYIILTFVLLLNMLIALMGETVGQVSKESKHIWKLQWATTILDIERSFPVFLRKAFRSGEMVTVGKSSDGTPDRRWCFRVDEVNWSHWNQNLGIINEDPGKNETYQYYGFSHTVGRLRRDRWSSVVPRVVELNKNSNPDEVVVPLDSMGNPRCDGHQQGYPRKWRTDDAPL

Substance: endogenous RhoA copurified with overexpressed TRPV4 (from UniProt P61586 1-193) (natural protein)
- stoichiometry N (RhoA per TRPV4 subunit): 1

— article doi:10.1101/2023.03.15.532784
